Substitutions are numbered along the chain they refer to. In names and notes the source's numbering stands. Each block holds one binder with its values, some of them ahead of it.
Columns and labels:
[1] = target: T1, human FcγRIIA-Arg131 α subunit extracellular domain-His6-GST fusion (human, UniProt P12318 34-217); assay: hexamer ELISA
T1 construct: extracellular domain; also called FcγRIIA-R131; not shown: glutathione S transferase (GST)
T1 sequence: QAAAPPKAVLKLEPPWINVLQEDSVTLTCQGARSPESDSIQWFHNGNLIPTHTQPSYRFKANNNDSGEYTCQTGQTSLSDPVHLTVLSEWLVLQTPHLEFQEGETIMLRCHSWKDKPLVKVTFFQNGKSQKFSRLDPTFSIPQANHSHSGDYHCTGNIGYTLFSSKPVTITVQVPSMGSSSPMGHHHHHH

[2] = target: T2, human FcγRIIIA-Phe158 α subunit extracellular domain-His6-GST fusion (human, UniProt P08637 17-208); assay: hexamer ELISA
T2 construct: extracellular domain; also called FcγRIIIA-F158; CD16; not shown: glutathione S transferase (GST)

[3] = target: T3, human FcγRI (FcγRIA) α subunit extracellular domain-His6-GST fusion (human, UniProt P12314 16-292); assay: monomeric IgG; ELISA on receptor-GST and THP-1 cells, averaged
T3 construct: Reported FcγRI values are the average of the plate ELISA on this fusion and of a flow cytometry assay on THP-1 cells; also called GST-FcγRIA; not shown: glutathione S-transferase (GST)

[4] = target: T4, human FcγRIIIA-F158 α subunit extracellular domain-6His-GST fusion (human, UniProt P08637 17-208); assay: ELISA, IgG:IgE hexamers on receptor-GST
T4 construct: also called FcγRIIIA-Phe158; not shown: glutathione S-transferase (GST)

[5] = target: T5, human FcγRIIB α subunit extracellular domain-6His-GST fusion (human, UniProt P31994 43-217); assay: ELISA, IgG:IgE hexamers on receptor-GST
T5 construct: not shown: glutathione S-transferase (GST)
T5 sequence: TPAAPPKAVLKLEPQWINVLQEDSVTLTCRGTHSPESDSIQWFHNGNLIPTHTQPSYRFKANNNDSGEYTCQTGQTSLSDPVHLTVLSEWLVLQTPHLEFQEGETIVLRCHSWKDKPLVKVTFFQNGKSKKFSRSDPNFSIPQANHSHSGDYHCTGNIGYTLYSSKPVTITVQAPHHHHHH

[6] = target: T6, human FcγRIIA-R131 α subunit extracellular domain-6His-GST fusion (human, UniProt P12318 34-217); assay: ELISA, IgG:IgE hexamers on receptor-GST
T6 construct: also called FcγRIIA-Arg131; not shown: glutathione S-transferase (GST)
T6 sequence: T1 sequence

[7] = target: T7, human FcγRIIA-R131 α subunit extracellular domain-His6-GST fusion protein (human, UniProt P12318 34-217); assay: ELISA, IgG:IgE hexamer on coated FcγRIIA-R131-GST; separate assays run together with the H131 assays
T7 construct: ECD-6His-GST fusion made in 293 cells, coated on the plate; also called FcγRIIA-Arg131; not shown: glutathione S-transferase (GST)
T7 sequence: T1 sequence

[8] = target: T8, human FcγRIIIA-Val158 with human γ-chain on stably transfected CHO cells (human, UniProt P08637 17-254; P30273 19-86); assay: flow cytometry, monomeric IgG on CHO cells with FcγRIIIA-Val158 α- and γ-chains
T8 construct: whole, on cells; CHO cells stably transfected with the α- and γ-chains of the receptor; also called FcγRIIIA-Val158 (cell-based assay); FcγRIIIA-V158

[9] = target: T7, human FcγRIIA-R131 α subunit …; assay: ELISA, IgG:IgE hexamer on coated FcγRIIA-R131-GST; value carried over from Table 6, 7 or 8
[10] = target: T9, human FcγRIIIA-Phe158 α subunit extracellular domain-His6-GST fusion protein (human, UniProt P08637 17-208); assay: ELISA, IgG:IgE hexamer on coated FcγRIIIA-Phe158-GST; value carried over from Table 6
T9 construct: ELISA-format target; also called FcγRIIIA-F158; not shown: glutathione S-transferase (GST)

[11] = target: T10, human FcγRIIIA-Phe158 with human γ-chain on stably transfected CHO cells (human, UniProt P08637 17-254; P30273 19-86); assay: flow cytometry, monomeric IgG on CHO cells with FcγRIIIA-Phe158 α- and γ-chains
T10 construct: whole, on cells; CHO cells stably transfected with the α- and γ-chains of the receptor; also called FcγRIIIA-Phe158 (cell-based assay)
Procedure: CHO cell transfection was carried out using Superfect (Qiagen) according to the manufacturer's instructions. […] Receptor expression levels were determined by staining with anti-FcγRIII monoclonal antibody 3G8 (Medarex). Binding of IgG1 variants was performed by adding monomeric IgG in staining buffer to 5×10^5 cells and incubating in 96 well round-bottom tissue culture plates (Costar, Cambridge, Mass.) at 4° C. for 30 min. Cells were washed three times with staining buffer and IgG binding detected by addition of 1:200 PE-F(ab')_2 fragment of goat anti-human IgG and incubation for 30 min at 4° C. After washing, immunofluorescence staining was analyzed on a FACScan flow cytometer using Cellquest software (Becton Dickinson). Dead cells were excluded from analysis by addition of 1 μg/ml propidium iodide.
For FcγRIIIA, the selected variants were assayed in the ELISA-format as well as on stable-transfected CHO cell lines expressing the γ-chains (FcγRIIIA-Phe158 or FcγRIIIA-Val158) with the associated human α-chain.

[12] = target: T11, human FcγRIIIA-Val158 α subunit extracellular domain-His6-GST fusion protein (human, UniProt P08637 17-208); assay: ELISA format, hexameric complex on FcγRIIIA-Val158
T11 construct: ELISA-format target; also called FcγRIIIA-V158; not shown: glutathione S-transferase (GST)

[13] = target: T12, human FcγRIIA-H131 α subunit extracellular domain-His6-GST fusion protein (human, UniProt P12318 34-217); assay: ELISA, IgG:IgE hexamer on coated FcγRIIA-H131-GST
T12 construct: also called FcγRIIA-His131; not shown: glutathione S-transferase (GST)
T12 sequence: T1 sequence with R134H

[14] = target: T9, human FcγRIIIA-Phe158 α subunit …; assay: ELISA format, hexameric complex on FcγRIIIA-Phe158; separate assays run together with the Val158 assays
[15] = target: T12, human FcγRIIA-H131 α subunit …; assay: ELISA; binding ratio on FcγRIIA-H131 divided by that on FcγRIIA-R131
[16] = target: T13, human FcγRIIB α subunit extracellular domain-His6-GST fusion (human, UniProt P31994 43-217); assay: hexamer ELISA
T13 construct: extracellular domain; also called CD32; not shown: glutathione S transferase (GST)
T13 sequence: T5 sequence

[17] = target: T14, human FcγRIA α subunit extracellular domain-His6-GST fusion (human, UniProt P12314 16-292); assay: FcγRI ELISA and THP-1 cells, averaged
T14 construct: extracellular domain; also called GST-FcγRIA; CD64; not shown: glutathione S transferase (GST)

[18] = target: T14, human FcγRIA α subunit extracellular …; assay: FcγRI ELISA, E27 background
Procedure: Prior to assay, plates are washed 3× with 250 μl of wash buffer (PBS pH 7.4 containing 0.5% TWEEN 20™) and blocked with 250 μl of assay buffer (50 mM Tris buffered saline, 0.05% TWEEN 20™, 0.5% RIA grade bovine albumin (Sigma A7888), and 2 mM EDTA pH 7.4). Samples diluted to 10 μg/ml in 1 ml of assay buffer are added to FcγRI α subunit coated plates and incubated for 120 minutes at 25° C. on an orbital shaker. […] Plates are washed 5× with wash buffer to remove unbound HRP goat anti-human IgG and bound anti-IgG is detected by adding 100 μl of substrate solution (0.4 mg/ml o-phenylenedaimine dihydrochloride, Sigma P6912, 6 mM H_2O_2 in PBS) and incubating for 8 min at 25° C. Enzymatic reaction is stopped by the addition of 100 μl 4.5N H_2SO_4 and colorimetric product is measured at 490 nm on a 96 well plate densitometer (Molecular Devices). Binding of variant is expressed as a percent of the wild type molecule.

[19] = target: T1, human FcγRIIA-Arg131 α subunit …; assay: hexamer ELISA; remark: listed apart in the source
[20] = target: T2, human FcγRIIIA-Phe158 α subunit …; assay: hexamer ELISA; remark: listed apart in the source
[21] = target: T1, human FcγRIIA-Arg131 α subunit …; assay: immune complex ELISA, E27 background
[22] = target: T2, human FcγRIIIA-Phe158 α subunit …; assay: immune complex ELISA, E27 background
[23] = target: T15, human neonatal Fc receptor (FcRn), biotinylated (human, UniProt P55899 24-297; P61769 21-119, biotinylated (biotin-X-NHS)); assay: FcRn ELISA, pH 6.0;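 further: Streptavidin-captured FcRn plates, IgG variants titrated 2 h at pH 6.0, peroxidase anti-human IgG read at 450 nm, variant over standard concentration at the standard curve mid-point absorbance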
T15 construct: captured on streptavidin plates

T11 sequence (P08637 other isoform, or with tags, fused parts or gaps, form in doubt): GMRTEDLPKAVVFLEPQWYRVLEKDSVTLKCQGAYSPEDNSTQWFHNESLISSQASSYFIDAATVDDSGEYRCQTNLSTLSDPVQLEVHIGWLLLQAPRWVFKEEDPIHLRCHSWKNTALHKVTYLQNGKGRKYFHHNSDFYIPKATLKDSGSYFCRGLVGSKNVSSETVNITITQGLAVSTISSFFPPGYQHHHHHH
T8 sequence (P08637 17-254 F176V, chain 1 of 2): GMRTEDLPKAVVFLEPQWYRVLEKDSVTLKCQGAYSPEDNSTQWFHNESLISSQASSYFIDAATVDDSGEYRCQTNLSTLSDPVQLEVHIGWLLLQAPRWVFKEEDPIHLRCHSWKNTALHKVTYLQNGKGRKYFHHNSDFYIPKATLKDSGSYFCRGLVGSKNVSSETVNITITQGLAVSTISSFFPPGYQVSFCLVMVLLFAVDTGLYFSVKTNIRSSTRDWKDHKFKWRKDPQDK
T8 sequence (P30273 19-86, chain 2 of 2): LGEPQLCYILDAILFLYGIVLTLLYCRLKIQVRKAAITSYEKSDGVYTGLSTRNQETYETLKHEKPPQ
T10 sequence (P08637 17-254, chain 1 of 2): as the sequence (P08637 17-254 F176V, chain 1 of 2) above, with V160F counted along it
T10 sequence (P30273 19-86, chain 2 of 2): as the sequence (P30273 19-86, chain 2 of 2) above
T9 sequence (P08637 other isoform, or with tags, fused parts or gaps, form in doubt): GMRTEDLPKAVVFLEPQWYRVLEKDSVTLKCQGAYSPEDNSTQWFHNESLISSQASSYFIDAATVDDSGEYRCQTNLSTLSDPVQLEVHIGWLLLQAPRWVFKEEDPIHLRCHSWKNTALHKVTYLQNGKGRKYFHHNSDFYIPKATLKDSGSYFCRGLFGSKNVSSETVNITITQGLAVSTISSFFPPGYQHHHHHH
T14 sequence (P12314 other isoform, or with tags, fused parts or gaps): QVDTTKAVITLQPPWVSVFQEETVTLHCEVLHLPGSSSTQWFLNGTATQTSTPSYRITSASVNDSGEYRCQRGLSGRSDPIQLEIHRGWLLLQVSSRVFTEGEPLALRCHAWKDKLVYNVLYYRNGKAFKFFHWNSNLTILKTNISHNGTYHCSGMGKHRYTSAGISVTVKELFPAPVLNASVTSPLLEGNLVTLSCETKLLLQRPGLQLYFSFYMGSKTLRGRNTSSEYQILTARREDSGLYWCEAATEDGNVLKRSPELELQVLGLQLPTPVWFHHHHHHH
T3 sequence (P12314 other isoform, or with tags, fused parts or gaps, form in doubt): as the sequence (P12314 other isoform, or with tags, fused parts or gaps) above

- reduction in binding against native IgG1 [1]: 30%
- reduction in binding against native IgG1 [2]: 30%
B1: anti-IgE E27 IgG1 Arg416 changed to Ala (antibody)
heavy: not shown
light: DIQLTQSPSSLSASVGDRVTITCRASKPVDGEGDSYLNWYQQKPGKAPKLLIYAASYLESGVPSRFSGSGSGTDFTLTISSLQPEDFATYYCQQSHEDPYTFGQGTKVEIKRTVAAPSVFIFPPSDEQLKSGTASVVCLLNNFYPREAKVQWKVDNALQSGNSQESVTEQDSKDSTYSLSSTLTLSKADYEKHKVYACEVTHQGLSSPVTKSFNRGEC
notes: named only by its position

- ratio of binding of the variant to that of native IgG1 [8]: 0.89 ratio (variant/native IgG1)
- ratio of binding of the variant to that of native IgG1 [10]: 1.31 ratio (variant/native IgG1)
- ratio of binding of the variant to that of native IgG1 [11]: 1.61 ratio (variant/native IgG1)
- ratio of binding of the variant to that of native IgG1 [12]: 1.01 ratio (variant/native IgG1)
- ratio of binding of the variant to that of native IgG1 [14]: 1.15 ratio (variant/native IgG1)
B7: anti-IgE E27 IgG1 variant Lys290Ala (antibody)
heavy: not shown
light: B1 light
notes: also called K290(307)A; K307A

- ratio of binding of the variant to that of native IgG1 [8]: 0.05 ratio (variant/native IgG1)
- ratio of binding of the variant to that of native IgG1 [10]: 0.09 ratio (variant/native IgG1)
- ratio of binding of the variant to that of native IgG1 [11]: 0.12 ratio (variant/native IgG1)
- ratio of binding of the variant to that of native IgG1 [12]: 0.02 ratio (variant/native IgG1)
- ratio of binding of the variant to that of native IgG1 [14]: 0.05 ratio (variant/native IgG1)
B9: anti-IgE E27 IgG1 variant Asp265Ala (antibody)
heavy: not shown
light: B1 light
notes: also called D278A

- ratio to native IgG1 [17]: 0.48 ratio
- percentage of the wild type [18]: 104%
- ratio to native IgG1 [19]: 0.08 ratio
- ratio to native IgG1 [20]: 0.21 ratio
- percentage of the wild type [21]: 111%
- percentage of the wild type [22]: 85%
- ratio to native IgG1 [23]: 0.8 ratio
B10: anti-IgE E27 IgG1 Pro329Ala (antibody)
heavy: not shown
light: B1 light
notes: also called P329A

The next lines start with the binder.

B2: E27 IgG1 variant K334(353)M (antibody)
heavy: not shown
light: B1 light
notes: also called IG2 190
- ratio to native IgG1 [3]: 1.18
- ratio to native IgG1 [4]: 0.49
- ratio to native IgG1 [5]: 0.93
- ratio to native IgG1 [6]: 0.99

B3: anti-IgE E27 IgG1 variant Ser298Ala (antibody)
heavy: not shown
light: B1 light
notes: also called S317A
- ratio of binding of the variant to that of native IgG1 [7]: 0.26 ratio (variant/native IgG1)
- ratio of binding of the variant to that of native IgG1 [8]: 1.18 ratio (variant/native IgG1)
- ratio of binding of the variant to that of native IgG1 [9]: 0.4 ratio (variant/native IgG1)
- ratio of binding of the variant to that of native IgG1 [10]: 1.34 ratio (variant/native IgG1)
- ratio of binding of the variant to that of native IgG1 [11]: 1.85 ratio (variant/native IgG1)
- ratio of binding of the variant to that of native IgG1 [12]: 1.07 ratio (variant/native IgG1)
- ratio of binding of the variant to that of native IgG1 [13]: 0.24 ratio (variant/native IgG1)
- ratio of binding of the variant to that of native IgG1 [14]: 1.49 ratio (variant/native IgG1)
- H131/R131 [15]: 0.93 ratio (H131 value/R131 value)

B4: anti-IgE E27 IgG1 Gln419 changed to Ala (antibody)
heavy: not shown
light: B1 light
notes: named only by its position
- reduction in binding against native IgG1 [1]: 30%
- reduction in binding against native IgG1 [16]: 40%

B5: anti-IgE E27 IgG1 variant Lys334Ala (antibody)
heavy: not shown
light: B1 light
notes: also called K353A
- ratio of binding of the variant to that of native IgG1 [8]: 1.26 ratio (variant/native IgG1)
- ratio of binding of the variant to that of native IgG1 [10]: 1.39 ratio (variant/native IgG1)
- ratio of binding of the variant to that of native IgG1 [11]: 2.46 ratio (variant/native IgG1)
- ratio of binding of the variant to that of native IgG1 [12]: 1.1 ratio (variant/native IgG1)
- ratio of binding of the variant to that of native IgG1 [14]: 1.39 ratio (variant/native IgG1)

B6: anti-IgE E27 IgG1 variant Glu333Ala (antibody)
heavy: not shown
light: B1 light
notes: also called E352A
- ratio of binding of the variant to that of native IgG1 [8]: 1.08 ratio (variant/native IgG1)
- ratio of binding of the variant to that of native IgG1 [10]: 1.27 ratio (variant/native IgG1)
- ratio of binding of the variant to that of native IgG1 [11]: 1.42 ratio (variant/native IgG1)
- ratio of binding of the variant to that of native IgG1 [12]: 1.06 ratio (variant/native IgG1)
- ratio of binding of the variant to that of native IgG1 [14]: 1.13 ratio (variant/native IgG1)

B8: anti-IgE E27 IgG1 variant Pro331Ala (antibody)
heavy: not shown
light: B1 light
notes: also called P331(350)A; IG2 65
- ratio of binding of the variant to that of native IgG1 [8]: 0.88 ratio (variant/native IgG1)
- ratio of binding of the variant to that of native IgG1 [10]: 1.08 ratio (variant/native IgG1)
- ratio of binding of the variant to that of native IgG1 [11]: 0.94 ratio (variant/native IgG1)
- ratio of binding of the variant to that of native IgG1 [12]: 0.97 ratio (variant/native IgG1)
- ratio of binding of the variant to that of native IgG1 [14]: 1 ratio (variant/native IgG1)

— patent US7183387 (Genentech, dated 2007)
